Laboratory results from US20220332804A1 (CSL INNOVATION, published 2022).
Changes are numbered by the printed parent chain.

Columns and labels:
Experiment in all cases: SPR, antibody captured, C2 as analyte;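 further: biacore at 37 °C, anti-C2 mAbs held by immobilised goat anti-human IgG, C2 alanine or serine mutants injected, double-referenced sensorgrams fitted to a 1:1 kinetic or steady-state model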
human C2 K443A = biological target: T1, human C2 K443A (human, UniProt P06681 21-752)
T1 sequence: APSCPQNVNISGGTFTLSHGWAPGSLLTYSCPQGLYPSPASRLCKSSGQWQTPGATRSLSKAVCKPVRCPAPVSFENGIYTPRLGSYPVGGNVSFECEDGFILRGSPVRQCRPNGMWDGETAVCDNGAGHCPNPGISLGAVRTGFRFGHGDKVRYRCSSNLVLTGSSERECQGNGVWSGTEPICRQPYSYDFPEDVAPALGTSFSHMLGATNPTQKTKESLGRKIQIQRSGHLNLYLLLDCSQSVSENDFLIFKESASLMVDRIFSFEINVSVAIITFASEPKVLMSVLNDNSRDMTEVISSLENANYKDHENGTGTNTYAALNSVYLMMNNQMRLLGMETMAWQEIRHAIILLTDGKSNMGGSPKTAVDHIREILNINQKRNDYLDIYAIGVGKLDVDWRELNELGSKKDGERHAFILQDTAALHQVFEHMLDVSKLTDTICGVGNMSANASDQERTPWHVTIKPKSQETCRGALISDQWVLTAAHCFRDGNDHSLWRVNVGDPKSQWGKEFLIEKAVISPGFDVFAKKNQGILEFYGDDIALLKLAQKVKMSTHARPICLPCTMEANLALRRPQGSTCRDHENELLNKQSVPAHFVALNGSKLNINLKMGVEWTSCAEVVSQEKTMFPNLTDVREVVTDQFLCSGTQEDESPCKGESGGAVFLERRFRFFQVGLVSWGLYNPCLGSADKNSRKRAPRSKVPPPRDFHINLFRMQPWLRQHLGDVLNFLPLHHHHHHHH

human C2 D454A = biological target: T2, human C2 D454A (human, UniProt P06681 21-752)
T2 sequence: T1 sequence with A423K, D434A

human C2 G466A = biological target: T3, human C2 G466A (human, UniProt P06681 21-752)
T3 sequence: T1 sequence with A423K, G446A

human C2 F270A = biological target: T4, human C2 F270A (human, UniProt P06681 21-752)
T4 sequence: T1 sequence with F250A, A423K

B1: RF16-242 (antibody, human IgG4 S228P, lambda, V domains shown)
VH: EVQLLQSGAEVKKPGESLKISCKGSGYSFTSYWIGWVRQMPGKGLEWMGIIYPGDSDTRYSPSFQGQVTISADKSISTAYLQWSSLKASDTAMYYCARRGHYGDYFDYWGQGTLVTVSS
VL: SYELTQPPSVSVSPGQTARITCSGDALPKKYAYWYHQKSGQAPVLVIYEDRRRPSEIPERFSGSSSGTMATLTITGAQVEDEGVYFCYSRDRAGNQRVFGGGTQLTVLG
notes: pH-dependent anti-C2 antibody from a phage display library
- binding result (human C2 K443A): no binding
- Kd (human C2 D454A): 35.4 nM
- Kd (human C2 G466A): 24.9 nM
- Kd (human C2 F270A): 104 nM
